Target: monomeric sCD4 (D1D2)
Test: SPR

B1: JR-FL gp120 (natural protein)
chain: not shown
  Kd: 12 nM

— article PMC3044691 (2011)
